Experimental data taken from the supplement of paper PMC11780869.

System: Bacillus subtilis
Assay: cleaved RNA product abundance (RNA/gDNA barcode ratio) relative to median wild-type variant (ratio to wild type); higher = more accumulation of the downstream cleavage product
Summary of the method: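 In LB at 37°C, B. subtilis cultures went from OD600 0.0003 to 0.3. Their chromosomes held barcoded reporter mRNAs, truncated aprE or tetM, with RNase Y cleavage-site windows mutagenized via oligos at a 9% error rate. Cleaved RNA, chosen by gel, was reverse transcribed and barcode-sequenced alongside genomic DNA barcodes with UMI collapsing, giving a per-construct RNA:gDNA ratio scaled to the median construct with the unmutated site. This scaled ratio is termed cleaved product abundance.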

[1] = experiment (reporter, strain, medium): exp 8a: truncated aprE reporter, strain BJT201 with 2% xylose (RNase J1 expressed), cleavage site: glnRA (positions -5 to +31 mutated)
[2] = experiment (reporter, strain, medium): exp 2b: truncated aprE reporter, strain BJT200, cleavage site: cggR-gapA (positions -7 to +36 mutated)
[3] = experiment (reporter, strain, medium): exp 4a: truncated aprE reporter, strain BJT201 with 2% xylose (RNase J1 expressed), cleavage site: cggR-gapA (positions -7 to +36 mutated)
[4] = experiment (reporter, strain, medium): exp 6: tetM reporter, strain 168, cleavage site: cggR-gapA (positions -7 to +36 mutated)

Sequence	cleaved RNA product abundance [1]	cleaved RNA product abundance [3]	also measured
CGACATGTCCCGCTTCTTTCATTAATCCGTTAGCAAATGTTTAGCTATATACATTTACCTTTTAAGAGGAGGAAT	0.503		
ACAGACGAAGGAGCCGCAAAGAAGTTATTACGGCATGAATAATCCCTCAATATAAATATCTCTCACTTATTTAAA		0.204	cleaved RNA product abundance [2]: 0.0982
ACAGACGAAGGAGCCGCAAAGAAGTTATTAAGGGATGAATAATGACTCAATATAAATATCTCTCACTTATTTAAA		0.142	
ACAGACGAAGGAGCCGCAAAGAAGTTATTAAGGGATGAATCATACCTCAATATAAATATCTCTCACTTATTTAAA		0.215	cleaved RNA product abundance [2]: 0.164
CGACATGTCCCGCTTCTTTCATTATTCCGTTAGCAACTGTTTTACTATATACATATACCTTTTAAGAGGAGGAAT	0.607		
ACAGACGAAGGAGCCGCAAAGAAGCTATTAAGGGATGAATAATCCCTAAATATAAATATCTCTCACTTATTTAAA		0.407	cleaved RNA product abundance [2]: 0.346
ACAGACGAAGGAGCCGCAAAGAAGTTATTAAGGGAAGAATAATCCCTCAATATAAATAACTCTCACTTATTTAAA		0.434	
ACAGACGAAGGAGCCGCAAAGAAGTTATTAATAGATGAATAATCCCTCAATATAAATATCTCTCACTTATTTAAA		0.116	cleaved RNA product abundance [2]: 0.0972
ACAGACGAAGGAGCCGCAAAGAAGGTATTAAGGGATGAATAATCCATCAATATAAATATCTCTCACTTATTTAAA		0.13	
ACAGACGAAGGAGCCGCAATGAAGTTATTAAGGGATGTATAATCCCTCAATTTAAATATCTCTCACTTATTTAAA		0.25	
ACAGACGAAGGAGCCGCAAAGAAGAAATTAAGGGATGAATAATCCCTCAATATAAATATCTCTCACTTATTTAAA		0.185	cleaved RNA product abundance [2]: 0.171
CGACATGTCCCGCTTCTTTCATTAATCCGTTAGCAACTGTTTTGATATATAAATTTACCTTTTAAGAGGAGGAAT	0.397		
ACAGACGAAGGAGCCGCAAAGAAGTTATTAAGGGATGACTAATCCCTCTATATAAATATCTCTCACTTATTTAAA		0.337	
ACAGACGAAGGAGCCGCAAAGAAGTTATTAAGGTATGAATCATCCCTCAATATAAATATCTCTCACTTATTTAAA		0.176	
CGACATGTCCCGCTTCTTTCATTAATCTGTTAGCAACTGTTTTGGTATATACATTTACCTTTTAAGAGGAGGAAT	0.264		
CGACATGTCCCGCTTCTTTCATTAATCCGTTACCAACTGTTTTGCTATTTACATTTACCTTTTAAGAGGAGGAAT	0.118		
ACAGACGAAGGAGCCGCATAGAAGTTAATAAGGGATGAATAATCCCTCAATATAAATATCTCTCACTTATTTAAA		0.304	cleaved RNA product abundance [2]: 0.239
ACAGACGAAGGAGCCGCAAATAAGTTATTAATGGATGAATAATCCCTCAATATAAATATCTCTCACTTATTTAAA		0.184	cleaved RNA product abundance [2]: 0.123
CGACATGTCCCGCTTCTTTCATTACTCCGTTAGCAACTGTTTTGCTATATACATTTACTTTTTAAGAGGAGGAAT	1.59		
ACAGACGAAGGAGCCGCAAAGAAGTTATTAAGGGATGAATAATCCATCAATATAAATATCTCTCACTTATTTAAA		0.23	cleaved RNA product abundance [2]: 0.184; cleaved RNA product abundance [4]: 0.201
ACAGACGAAGGAGCCGCAAAGAAGTTATTAAGGGATGAATGATCCCTCAATATAAAAATCTCTCACTTATTTAAA		0.651	

Sequence	cleaved RNA product abundance [1]	cleaved RNA product abundance [3]	also measured
CGACATGTCCCGCTTCTTTCATTAAACCGTTAGCAACTGTCTTGCTATATACATTTACCTTTTAAGAGGAGGAAT	0.759		
ACAGACGAAGGAGCCGCATAGAATTTATTAAGGGATGAATAATCCCTCAATATAAATATCTCTCACTTATTTAAA		0.514	cleaved RNA product abundance [2]: 0.76
CGACATGTCCCGCTTCTTTCATTAATCCGTTAGCAACTATTTTGCTATATACATCTACCTTTTAAGAGGAGGAAT	0.944		
CGACATGTCCCGCTTCTTTCATTAATCAGTTAGCAACTGTTTTGCTATATACATTTACCCTTTAAGAGGAGGAAT	1.22		
ACAGACGAAGGAGCCGCAAAGAAGTTATTTAGGGATGAATAATCCCTCAATATAAAAATCTCTCACTTATTTAAA		0.601	
CGACATGTCCCGCTTCTTTCATTAATCCGTTAGAAACTGTTTTGCTATATACATTTACCTTTTAAGAGGAGGAAT	0.292		
ACAGACGAAGGAGCCGCAAAGAAGTTATTAAGGGATGTATAATCGCTCAATATAAATATCTCTCACTTATTTAAA		0.173	
ACAGACGAAGGAGCCGCAAAGAAGTGATTAAGGGATGAATAATCCCTCTATATAAATATCTCTCACTTATTTAAA		0.377	
CGACATGTCCCGCTTCTTTCATTATTCGGTTAGCAACTGTTTTGCTATATACATTTACCTTTTAAGAGGAGGAAT	1.73		
ACAGACGAAGGAGCCGCAAAGAAGATATTAAGGGATGAATAATCCATCAATATAAATATCTCTCACTTATTTAAA		0.207	
ACAGACGAAGGAGCCGCAAAGAAGTTATTAAGGAATGAATAATCCCTCAATATAAAAAACTCTCACTTATTTAAA		0.0884	
CGACATGTCCCGCTTCTTTCATTAATCCGTTAGCAACTGTTTAGCTATATACATTTAACTTTTAAGAGGAGGAAT	0.462		
CGACATGTCCCGCTTCTTTCATTAATCAGTGAGCAACTGTTTTGCTATATACATTTACCTTTTAAGAGGAGGAAT	0.37		
ACAGACGAAGGAGCCGCAAAGAAGTTATTAAGGGATGAATAATCCCTCAAAATAAATATTTCTCACTTATTTAAA		0.319	
CGACATGTCCCGCTTCTTTCATTAATCCGTTACGAACTGTTTTGCTATATACATTTACCTTTTAAGAGGAGGAAT	0.291		
CGACATGTCCCGCTTCTTTCATTAAACCGTTAGCAACTGTTTTGCTATATAAATTTACCTTTTAAGAGGAGGAAT	1.02		
ACAGACGAAGGAGCCGCAAAGAATTTACTAAGGGATGAATAATCCCTCAATATAAATATCTCTCACTTATTTAAA		0.31	cleaved RNA product abundance [2]: 0.251
ACAGACGAAGGAGCCGCAAAGAAGTTATTAAGTGATGAATAACCCCTCAATATAAATATCTCTCACTTATTTAAA		0.109	
CGACATGTCCCGCTTCTTTCATTAATCCGTTAGCAATTGTTTTGCTATATACATTTAACTTTTAAGAGGAGGAAT	1.06		
ACAGACGAAGGAGCCGCAAAGAAGTTATTAAGGAATGAACAATCCCTCAATATAAATATCTCTCACTTATTTAAA		0.124	cleaved RNA product abundance [2]: 0.0794
CGACATGTCCCGCTTCTTTCATTATGCCGTTAGCAACTGTTTTGCTATATACATTTACCTTTTAAGAGGAGGAAT	1.32		

Sequence	cleaved RNA product abundance [1]	cleaved RNA product abundance [3]	also measured
ACAGACGAAGGAGCCGCACAGAAGTTATTAAGGGATGAATAATCCCTCAATATACATATCTCTCACTTATTTAAA		1.13	
CGACATGTCCCGCTTCTTTCATTAATCCGTAAGCAACTGTTTTGCTATATACATTTAACTTTTAAGAGGAGGAAT	0.79		
CGACATGTCCCGCTTCTTTCATTAATCCGTTACCAACTGTTTTGTTATATACATTTACCTTTTAAGAGGAGGAAT	0.231		
CGACATGTCCCGCTTCTTTCATTAATCCGTTAGCAACTATATTGCTATATACATTTACCTTTTAAGAGGAGGAAT	1.45		
ACAGACGAAGGAGCCGCAAAAAAGTTATTAAGGGATGAATAATCCCTGAATATAAAGATCTCTCACTTATTTAAA			cleaved RNA product abundance [2]: 0.364
ACAGACGAAGGAGCCGCAAAGAAGTTATTAAGGGATGAATAAATCCCTCAATATAAATATCTCTCACTTATTTAA		0.537	
CGACATGTCCCGCTTCTTTCATTACTCCGTTAGCAACTGTTTTGCTATAGACATTTACCTTTTAAGAGGAGGAAT	0.738		
ACAGACGAAGGAGCCGCAAAGATGTTATTACGGGATGAATAATCCCTCAATATAAATATCTCTCACTTATTTAAA		0.401	cleaved RNA product abundance [2]: 0.369
ACAGACGAAGGAGCCGCAAAGAAGTTATTAAGGTATGAATAATCCCTCAGTATAAATATCTCTCACTTATTTAAA		0.1	
ACAGACGAAGGAGCCGCAAAGAAGTTATTAAGTGTTGAATAATCCCTTAATATAAATATCTCTCACTTATTTAAA		0.146	
ACAGACGAAGGAGCCGCAAAGAAGTTATTAAGGGATAAATAATCCGTCAATATAAATATCTCTCACTTATTTAAA		0.166	cleaved RNA product abundance [2]: 0.132
ACAGACGAAGGAGCCGCAAAGAAGTTATTCAGGGATGAATAATCCCTCAATATAAATATCTCTCACTTATTTAAA		0.882	cleaved RNA product abundance [2]: 0.766; cleaved RNA product abundance [4]: 0.609
ACAGACGAAGGAGCCGCAAAGATGTTATTAAGGGATAAATAATCCCTCAATATAAATATCTCTCACTTATTTAAA		0.906	
CGACATGTCCCGCTTCTTTCATTAATCCGTTTGCAACTGTTTTGCTATATACATTTACGTTTTAAGAGGAGGAAT	0.661		
ACAGACGAAGGAGCCGCAAAGATGCTATTAAGGGATGAATAATCCCTCAATATAAATATCTCTCACTTATTTAAA		0.848	
ACAGACGAAGGAGCCGCAAAGAATTTATTAAGGGATGAATAATCCCTCAATATAAATATCTCTCACTTATTAAAG		0.836	
ACAGACGAAGGAGCCGCAAAGAAGTTATTAAATGATGAATAATCCCTCAATATATATATCTCTCACTTATTTAAA		0.13	
ACAGACGAAGGAGCCGCAAATAAGTTATTAAGCGATGAATAATCCCTCAATATAAATATCTCTCACTTATTTAAA		0.134	
ACAGACGAAGGAGCCGCAAAGAAGTTATTAAGGGATGAATACTCCCTCAATAGAAATATCTCTCACTTATTTAAA		0.115	
